# Columns and labels:
# rb_mouse Rb1 = rb_mouse Rb1 (UniProt P13405)
# fog1_human ZFPM1 = fog1_human ZFPM1 (UniProt Q8IX07)
# fog1_human ZFPM1, sequence (Q8IX07 whole entry): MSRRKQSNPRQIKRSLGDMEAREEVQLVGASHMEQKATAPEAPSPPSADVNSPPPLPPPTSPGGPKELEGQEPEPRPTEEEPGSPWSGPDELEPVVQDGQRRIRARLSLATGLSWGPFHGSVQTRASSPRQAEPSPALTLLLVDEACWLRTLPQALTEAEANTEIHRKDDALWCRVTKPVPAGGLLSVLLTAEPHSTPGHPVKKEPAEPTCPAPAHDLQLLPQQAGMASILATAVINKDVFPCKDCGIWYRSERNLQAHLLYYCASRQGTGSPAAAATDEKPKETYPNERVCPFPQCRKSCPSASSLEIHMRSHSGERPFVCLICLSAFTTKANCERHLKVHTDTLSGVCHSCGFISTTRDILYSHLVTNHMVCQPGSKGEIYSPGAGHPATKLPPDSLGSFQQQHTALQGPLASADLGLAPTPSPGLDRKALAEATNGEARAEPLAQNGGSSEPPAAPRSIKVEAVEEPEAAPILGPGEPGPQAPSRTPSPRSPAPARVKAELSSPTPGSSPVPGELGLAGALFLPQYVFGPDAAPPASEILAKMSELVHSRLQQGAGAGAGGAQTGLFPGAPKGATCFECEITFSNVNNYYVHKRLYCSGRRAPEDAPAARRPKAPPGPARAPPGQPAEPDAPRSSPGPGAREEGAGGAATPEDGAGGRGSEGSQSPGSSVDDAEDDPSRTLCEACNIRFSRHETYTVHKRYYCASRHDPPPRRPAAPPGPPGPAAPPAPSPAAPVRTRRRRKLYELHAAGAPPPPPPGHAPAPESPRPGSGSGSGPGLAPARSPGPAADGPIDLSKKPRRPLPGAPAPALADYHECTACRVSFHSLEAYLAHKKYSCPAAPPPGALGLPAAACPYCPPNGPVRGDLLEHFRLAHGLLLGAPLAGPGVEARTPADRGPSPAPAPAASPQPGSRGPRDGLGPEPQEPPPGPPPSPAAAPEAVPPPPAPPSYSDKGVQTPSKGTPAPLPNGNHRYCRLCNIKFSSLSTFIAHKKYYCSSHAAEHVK
# Erythroid transcription factor (Homo sapiens), P15976 C83G;E85K, sequence (P15976 whole entry C83G/E85K): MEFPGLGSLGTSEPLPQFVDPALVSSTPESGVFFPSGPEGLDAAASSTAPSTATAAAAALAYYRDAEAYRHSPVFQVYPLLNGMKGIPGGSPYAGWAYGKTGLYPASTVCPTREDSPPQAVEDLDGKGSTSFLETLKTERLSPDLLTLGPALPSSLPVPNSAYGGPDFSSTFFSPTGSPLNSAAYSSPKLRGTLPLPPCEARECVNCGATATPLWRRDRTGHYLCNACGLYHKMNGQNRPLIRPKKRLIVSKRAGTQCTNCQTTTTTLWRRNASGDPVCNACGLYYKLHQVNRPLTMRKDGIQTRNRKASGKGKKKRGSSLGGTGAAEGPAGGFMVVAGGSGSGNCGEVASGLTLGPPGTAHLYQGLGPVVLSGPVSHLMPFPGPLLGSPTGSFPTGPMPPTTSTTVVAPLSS
# rb_mouse Rb1, sequence (P13405 whole entry): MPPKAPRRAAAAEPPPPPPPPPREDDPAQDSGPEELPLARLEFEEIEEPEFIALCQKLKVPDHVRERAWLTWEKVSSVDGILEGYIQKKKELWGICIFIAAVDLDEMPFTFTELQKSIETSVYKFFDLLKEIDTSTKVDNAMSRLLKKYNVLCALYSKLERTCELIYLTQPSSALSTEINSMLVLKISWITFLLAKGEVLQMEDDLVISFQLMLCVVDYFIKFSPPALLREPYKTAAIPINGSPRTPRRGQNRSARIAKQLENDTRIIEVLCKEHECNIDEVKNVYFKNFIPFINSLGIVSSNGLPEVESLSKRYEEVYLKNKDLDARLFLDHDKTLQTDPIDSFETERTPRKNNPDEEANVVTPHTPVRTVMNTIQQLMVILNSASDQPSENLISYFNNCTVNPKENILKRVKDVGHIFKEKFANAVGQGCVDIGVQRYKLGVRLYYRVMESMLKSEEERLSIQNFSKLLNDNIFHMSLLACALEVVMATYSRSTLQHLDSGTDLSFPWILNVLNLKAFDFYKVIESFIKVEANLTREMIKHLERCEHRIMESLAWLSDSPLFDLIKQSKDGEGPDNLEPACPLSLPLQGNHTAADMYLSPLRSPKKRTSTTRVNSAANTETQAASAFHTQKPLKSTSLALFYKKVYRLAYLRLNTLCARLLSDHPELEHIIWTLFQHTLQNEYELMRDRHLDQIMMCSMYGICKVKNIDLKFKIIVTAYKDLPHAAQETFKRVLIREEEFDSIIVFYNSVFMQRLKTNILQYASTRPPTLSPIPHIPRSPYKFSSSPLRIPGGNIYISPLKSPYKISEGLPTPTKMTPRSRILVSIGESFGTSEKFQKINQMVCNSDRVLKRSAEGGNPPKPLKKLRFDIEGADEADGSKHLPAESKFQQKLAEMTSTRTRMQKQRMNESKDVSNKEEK
# Erythroid transcription factor (Homo sapiens), P15976 V205G, sequence (P15976 whole entry V205G): as the sequence (P15976 whole entry C83G/E85K) above, with G83C, K85E, V205G counted along it
effect of a mutation on the interaction (rb_mouse Rb1),effect of a mutation on the interaction (fog1_human ZFPM1),Substance
disrupting interaction,–,"Erythroid transcription factor (Homo sapiens), P15976 C83G;E85K"
–,disrupting interaction,"Erythroid transcription factor (Homo sapiens), P15976 V205G"

# — IntAct's records for PubMed 19513100
